B1: Ddx5 (protein, UniProt Q61656 1-614, looked up)
Probable ATP-dependent RNA …: MSSYSSDRDRGRDRGFGAPRFGGSRTGPLSGKKFGNPGEKLVKKKWNLDELPKFEKNFYQEHPDLARRTAQEVDTYRRSKEITVRGHNCPKPVLNFYEANFPANVMDVIARQNFTEPTAIQAQGWPVALSGLDMVGVAQTGSGKTLSYLLPAIVHINHQPFLERGDGPICLVLAPTRELAQQVQQVAAEYCRACRLKSTCIYGGAPKGPQIRDLERGVEICIATPGRLIDFLECGKTNLRRTTYLVLDEADRMLDMGFEPQIRKIVDQIRPDRQTLMWSATWPKEVRQLAEDFLKDYIHINIGALELSANHNILQIVDVCHDVEKDEKLIRLMEEIMSEKENKTIVFVETKRRCDELTRKMRRDGWPAMGIHGDKSQQERDWVLNEFKHGKAPILIATDVASRGLDVEDVKFVINYDYPNSSEDYIHRIGRTARSTKTGTAYTFFTPNNIKQVSDLISVLREANQAINPKLLQLVEDRGSGRSRGRGGMKDDRRDRYSAGKRGGFNTFRDRENYDRGYSNLLKRDFGAKTQNGVYSAANYTNGSFGSNFVSAGIQTSFRTGNPTGTYQNGYDSTQQYGSNVANMHNGMNQQAYAYPLPQAAPMIGYPMPTGYSQ
B2: Scfd1 (protein, UniProt Q8BRF7 1-639, looked up)
Sec1 family domain-containing …: MVGSKMAATASIRERQTVALKRMLNFNVPHVKNSTGEPVWKVLIYDRFGQDIISPLLSVKELRDMGITLHLLLHSDRDPIPDVPAVYFVMPTEENIDRLCQDLRNQLYESYYLNFISAISRSKLEDIANAALAASAVTQVAKVFDQYLNFITLEDDMFVLCNQNKELVSYRAINRPDITDTEMETVMDTIVDSLFCFFVTLGAVPIIRCSRGTAAEMVAVKLDKKLRENLRDARNSLFTGDPLGTGQFSFQRPLLVLVDRNIDLATPLHHTWTYQALVHDVLDFHLNRVNLEESTGVENSPAGARPKRKNKKSYDLTPVDKFWQKHKGSPFPEVAESVQQELESYRAQEDEVKRLKSIMGLEGEDEGAISMLSDNTAKLTSAVSSLPELLEKKRLIDLHTNVATAVLEHIKARKLDVYFEYEEKIMSKTTLDKSLLDVISDPDAGTPEDKMRLFLIYYISAQQAPSEVDLEQYKKALTDAGCNLSPLQYIKQWKAFAKMASTPASYGNTTTKPMGLLSRVMNTGSQFVMEGVKNLVLKQQNLPVTRILDNLMEMKSNPETDDYRYFDPKMLRSNDSSVPRNKSPFQEAIVFVVGGGNYIEYQNLVDYIKAKQGKHILYGCSEIFNATQFIKQLSQLGQK
B3: Dbn1 (protein, UniProt Q16643 2-649, looked up)
Drebrin: AGVSFSGHRLELLAAYEEVIREESAADWALYTYEDGSDDLKLAASGEGGLQELSGHFENQKVMYGFCSVKDSQAALPKYVLINWVGEDVPDARKCACASHVAKVAEFFQGVDVIVNASSVEDIDAGAIGQRLSNGLARLSSPVLHRLRLREDENAEPVGTTYQKTDAAVEMKRINREQFWEQAKKEEELRKEEERKKALDERLRFEQERMEQERQEQEERERRYREREQQIEEHRRKQQTLEAEEAKRRLKEQSIFGDHRDEEEETHMKKSESEVEEAAAIIAQRPDNPREFFKQQERVASASAGSCDVPSPFNHRPGSHLDSHRRMAPTPIPTRSPSDSSTASTPVAEQIERALDEVTSSQPPPLPPPPPPAQETQEPSPILDSEETRAAAPQAWAGPMEEPPQAQAPPRGPGSPAEDLMFMESAEQAVLAAPVEPATADATEIHDAADTIETDTATADTTVANNVPPAATSLIDLWPGNGEGASTLQGEPRAPTPPSGTEVTLAEVPLLDEVAPEPLLPAGEGCATLLNFDELPEPPATFCDPEEVEGESLAAPQTPTLPSALEELEQEQEPEPHLLTNGETTQKEGTQASEGYFSQSQEEEFAQSEELCAKAPPPVFYNKPPEIDITCWDADPVPEEEEGFEGGD
B4: Psmd1 (protein, UniProt Q3TXS7 1-953, looked up)
26S proteasome non-ATPase …: MITSAAGIISLLDEEEPQLKEFALHKLNAVVNDFWAEISESVDKIEVLYEDEGFRSRQFAALVASKVFYHLGAFEESLNYALGAGDLFNVNDNSEYVETIIAKCIDHYTKQCVENADLPEGEKKPIDQRLEGIVNKMFQRCLDDHKYKQAIGIALETRRLDVFEKTILESNDVPGMLAYSLKLCMSLMQNKQFRNKVLRVLVKIYMNLEKPDFINVCQCLIFLDDPQAVSDILEKLVKEDNLLMAYQICFDLYESASQQFLSSVIQNLRTVGTPIASVPGSTNTGTVPGSEKDSDPMETEEKTASAVAGKTPDASPEPKDQTLKMIKILSGEMAIELHLQFLIRNNNTDLMILKNTKDAVRNSVCHTATVIANSFMHCGTTSDQFLRDNLEWLARATNWAKFTATASLGVIHKGHEKEALQLMATYLPKDTSPGSAYQEGGGLYALGLIHANHGGDIIDYLLNQLKNASNDIVRHGGSLGLGLAAMGTARQDVYDLLKTNLYQDDAVTGEAAGLALGLVMLGSKNAQAIEDMVGYAQETQHEKILRGLAVGIALVMYGRMEEADALIESLCRDKDPILRRSGMYTVAMAYCGSGNNKAIRRLLHVAVSDVNDDVRRAAVESLGFILFRTPEQCPSVVSLLSESYNPHVRYGAAMALGICCAGTGNKEAINLLEPMTNDPVNYVRQGALIASALIMIQQTEITCPKVNQFRQLYSKVINDKHDDVMAKFGAILAQGILDAGGHNVTISLQSRTGHTHMPSVVGVLVFTQFWFWFPLSHFLSLAYTPTCVIGLNKDLKMPKVQYKSNCKPSTFAYPAPLEVPKEKEKEKVSTAVLSITAKAKKKEKEKEKKEEEKMEVDEAEKKEEKEKKKEPEPNFQLLDNPARVMPAQLKVLSMTETCRYQPFKPLSIGGIIILKDTSEDVEELVEPVAAHGPKIEEEEQEPEPPEPFEYIDD
B5: Hsd17b4 (protein, UniProt P51660 1-735, looked up)
Peroxisomal multifunctional …: MASPLRFDGRVVLVTGAGGGLGRAYALAFAERGALVIVNDLGGDFKGIGKGSSAADKVVAEIRRKGGKAVANYDSVEAGEKLVKTALDTFGRIDVVVNNAGILRDRSFSRISDEDWDIIHRVHLRGSFQVTRAAWDHMKKQNYGRILMTSSASGIYGNFGQANYSAAKLGILGLCNTLAIEGRKNNIHCNTIAPNAGSRMTETVLPEDLVEALKPEYVAPLVLWLCHESCEENGGLFEVGAGWIGKLRWERTLGAIVRKRNQPMTPEAVRDNWEKICDFSNASKPQTIQESTGGIVEVLHKVDSEGISPNRTSHAAPAATSGFVGAVGHKLPSFSSSYTELQSIMYALGVGASVKNPKDLKFVYEGSADFSCLPTFGVIVAQKSMMNGGLAEVPGLSFNFAKALHGEQYLELYKPLPRSGELKCEAVIADILDKGSGVVIVMDVYSYSGKELICYNQFSVFVVGSGGFGGKRTSEKLKAAVAVPNRPPDAVLRDATSLNQAALYRLSGDWNPLHIDPDFASVAGFEKPILHGLCTFGFSARHVLQQFADNDVSRFKAIKVRFAKPVYPGQTLQTEMWKEGNRIHFQTKVHETGDVVISNAYVDLVPASGVSTQTPSEGGELQSALVFGEIGRRLKSVGREVVKKANAVFEWHITKGGTVAAKWTIDLKSGSGEVYQGPAKGSADVTIIISDEDFMEVVFGKLDPQKAFFSGRLKARGNIMLSQKLQMILKDYAKL
B6: Mtap (protein, UniProt Q9CQ65 1-283, looked up)
S-methyl-5'-thioadenosine …: MASGSACTAVKIGIIGGTGLDDPEILEGRTEKYVDTPFGKPSDALILGKIKNVDCVLLARHGRQHTIMPSKVNYQANIWALKEEGCTHVIVTTACGSLREEIQPGDMVIIDQFIDRTSLRPQTFYDGSHCSARGVCHIPMAEPFCPKTREVLIETAKKLGLRCHSKGTIVTIEGPRFSSRAESLIFRTWGADVVNMTTVPEVVLAKEAGICYASIAMATDYDCWKEHEEAVSVDGVLKTMKENANKAKSLLLTTIPQIGSMEWSETLRNLKNMAQFSVLPPRH
B7: Plekho2 (protein, UniProt Q8K124 1-495, looked up)
Pleckstrin homology …: MEEESIKEGSEKPRGARTADKAGWIKKSSGGLLGLWKDRYLLLCQAQLLVYENEDEQKCVETVELGSYEKCQDLRTLLKRKHHRFILLRSPGNKVSDIKFQAPSGEEKESWIKALNEGINRGKNKAFDEVKVDKTCALEHVTRNRVRGGQRRRPPTRIHLKEVASAASDGLSRLDLDVPDSGPPVFAPLSDISEDQPQEPPRALMPPVKPSPGPETSAVEDSKETPAGERALTPDSASSGANPESQEDAETPAKEDSDVKSLPNSTLSEKLKVSWENPSPEKPSAPESAQLSSSETPEATPRESKKPPAPPPKILSEKMKACMSGVDASGSSQSSEAPETTSPEPTQVSVNGMDDGPESALQAMGIPGPAPEDAAASPALPFSDLPSQFHPRSSSLGDLLRESPQHPRLPKEKLYRAQLEVKVASKQTEKLLNQVLGSEPPPVCAESLLSQAVEQLRQATQVLQEMRDLGELNQETPGLVQKRKELVTLYRRSAP

Assays:
WT MEF EVs = assay: Quantitative LC-MS/MS proteomics of EVs from ISRIB-treated WT MEF cultures; assay type: cell-based, mouse; design: key to ISRIB and DYT Parallel Direction / ISRIB and DYT Parallel Direction, Ctdsp1 / ISRIB and DYT Parallel Direction, Pcdh19 / ISRIB and DYT Parallel Direction, Tspan7 / ISRIB and DYT Parallel Direction, Myo1e / ISRIB and DYT Parallel Direction, Plpp3 / ISRIB and DYT Parallel Direction, Sh3bp4 / ISRIB and DYT Parallel Direction, Dnajc7 / ISRIB and DYT Parallel Direction, Drg1 / ISRIB and DYT Parallel Direction, Maea: YES = protein abundance effect similar to DYT/WT; conditions: EV protein abundance; for WT + ISRIB/WT Cohen's d: ISRIB-treated WT vs WT; for ISRIB and DYT Parallel Direction: WT + ISRIB vs WT, direction compared with DYT/WT
DYT-TOR1A MEF EVs = assay: Quantitative LC-MS/MS proteomics of EVs from drug-treated DYT-TOR1A MEF cultures (ritonavir, salubrinal); assay type: cell-based, mouse; design: key to RTV Corrective Direction / RTV Corrective Direction, Grwd1 / RTV Corrective Direction, Srrm2 / RTV Corrective Direction, Rbm17 / RTV Corrective Direction, Dcaf8 / RTV Corrective Direction, Edil3 / RTV Corrective Direction, Timp3 / RTV Corrective Direction, Heatr3 / RTV Corrective Direction, Brd4 / RTV Corrective Direction, P3h4 / RTV Corrective Direction, Pacsin3 / RTV Corrective Direction, Naa50 / RTV Corrective Direction, Lpar6 / RTV Corrective Direction, Ndrg1 / RTV Corrective Direction, Kntc1 / RTV Corrective Direction, Cdk11b / RTV Corrective Direction, Sumo1 / RTV Corrective Direction, Lsm4 / RTV Corrective Direction, Hmga2 / RTV Corrective Direction, Cstf1 / RTV Corrective Direction, Tes / RTV Corrective Direction, Sbno1 / RTV Corrective Direction, Unc119b / RTV Corrective Direction, Cfdp1 / RTV Corrective Direction, Sec61b: YES = protein abundance effect opposite to DYT/WT; conditions: EV protein abundance; for RTV Corrective Direction: DYT + RTV (ritonavir) vs DYT, direction compared with DYT/WT; for DYT + RTV/DYT Cohen's d: ritonavir (RTV)-treated DYT vs DYT

Molecule | WT + ISRIB/WT Cohen's d (WT MEF EVs) | ISRIB and DYT Parallel Direction (WT MEF EVs) | RTV Corrective Direction (DYT-TOR1A MEF EVs) | DYT + RTV/DYT Cohen's d (DYT-TOR1A MEF EVs)
B1 | −0.92 | YES | YES | 4.48
B2 | −2.48 | YES | YES | 4.43
B3 | −3.18 | YES | YES | 4.58
B4 | −0.65 | YES | YES | 4.33
B5 | −2.20 | YES | YES | 4.01
B6 | −0.85 | YES | YES | 3.50
B7 | 0.14 | YES | YES | −5.03

Source: patent publication US20260266848A1, “COMPOSITIONS AND METHODS FOR DIAGNOSING AND TREATING DYSTONIA” (Duke University, priority 2023, published 2026)
